In patent US20230303698A1 (published 2023) one finds EC50 data, which are given here for eight molecules.

Usually EC50 stands for the concentration giving half of the maximal effect. A lower EC50 goes with higher potency in that assay.

Like-named read-outs stand apart in the source and are kept apart here.

Common to all, as to test: FACS
For orientation: Flow cytometry measures light scatter and fluorescence of single cells or particles in a stream.

In assay [1] the target is human PD-L1 (human, UniProt Q9NZQ7 19-290).
Sequence of human PD-L1 (Q9NZQ7 19-290): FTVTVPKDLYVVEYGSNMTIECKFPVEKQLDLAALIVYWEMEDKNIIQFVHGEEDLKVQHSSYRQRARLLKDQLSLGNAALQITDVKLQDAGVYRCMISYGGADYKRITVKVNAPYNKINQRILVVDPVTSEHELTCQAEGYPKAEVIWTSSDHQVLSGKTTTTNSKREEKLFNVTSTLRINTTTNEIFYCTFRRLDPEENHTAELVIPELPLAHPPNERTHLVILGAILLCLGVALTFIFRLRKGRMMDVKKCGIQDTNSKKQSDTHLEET
The target of assay [2] is T1, human 4-1BB (human, UniProt Q07011 24-255).
Assay [3] concerns the target T1, human 4-1BB. The source holds these as a separate data set.

B1: PR007164 (bispecific antibody)
chain 1: EVQLVESGGGLVQPGGSLRLSCAASGFTFSSYWMSWVRQAPGKGLEWVANIKQEGSEKYYVDSVKGRFTISRDNAKNSLYLQMNSLRAEDTAVYYCARDRAVAGAFDIWGQGTMVTVSSASTKGPSVFPLAPSSKSTSGGTAALGCLVKDYFPEPVTVSWNSGALTSGVHTFPAVLQSSGLYSLSSVVTVPSSSLGTQTYICNVNHKPSNTKVDKKVEPKSC
chain 2: not shown
With B1, the 50% effective concentration (EC50) in assay [1] was 1.93 nM.

B2: PR004270 (bispecific antibody)
chain 1: EVQLVESGGGLVQPGGSLRLSCAASGFTFSSYWMSWVRQAPGKGLEWVANIKQEGSEKYYVDSVKGRFTISRDNAKNSLYLQMNSLRAEDTAVYYCARDRAVAGAFDIWGQGTMVTVSSASTKGPSVFPLAPSSKSTSGGTAALGCLVKDYFPEPVTVSWNSGALTSGVHTFPAVLQSSGLYSLSSVVTVPSSSLGTQTYICNVNHKPSNTKVDKKVEPKSC
chain 2: not shown
As for B2, in assay [1], the EC50 amounted to 0.963 nM. Compared with the last molecule, the EC50 is about 2-fold lower.

B3: PR003562 (bispecific antibody)
light: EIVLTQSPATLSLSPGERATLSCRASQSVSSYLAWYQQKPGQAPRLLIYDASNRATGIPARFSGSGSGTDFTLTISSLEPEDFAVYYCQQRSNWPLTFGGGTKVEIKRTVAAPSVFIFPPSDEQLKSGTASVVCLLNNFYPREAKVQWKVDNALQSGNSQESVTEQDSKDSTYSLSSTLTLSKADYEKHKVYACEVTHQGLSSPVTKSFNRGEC
heavy: EVQLLESGGGLVQPGGSLRLSCAASGFTFSSFVMSWVRQAPGKGLEWVSTISGSGRSTYYADSVKGRFTISRDNSKNTLHLQMNSLRAEDTAVYYCAKDAAAAGTKFDYWGQGTLVTVSSASTKGPSVFPLAPSSKSTSGGTAALGCLVKDYFPEPVTVSWNSGALTSGVHTFPAVLQSSGLYSLSSVVTVPSSSLGTQTYICNVNHKPSNTKVDKKVEPKSCDKTHTCPPCPAPEAAGGPSVFLFPPKPKDTLMISRTPEVTCVVVDVSHEDPEVKFNWYVDGVEVHNAKTKPREEQYNSTYRVVSVLTVLHQDWLNGKEYKCKVSNKALGAPIEKTISKAKGQPREPQVYTLPPSREEMTKNQVSLTCLVKGFYPSDIAVEWESNGQPENNYKTTPPVLDSDGSFFLYSKLTVDKSRWQQGNVFSCSVMHEALHNHYTQKSLSLSPGEPKSSDKTHTPPPPPRTEVQLLESGGGLVQLGGSLRLSCAASGFTFSRYAMTWVRQAPEKGLEWVSSISGSGDDTYYGDSVKGRFTISRDNSQNTVYLQMNSLRAEDTAVYFCAKEKAGTTGDYYYNVDVWGQGTTVTVSS
In the case of B3, in assay [2], the EC50 was found to be 1.87 nM.

B4: PR003551 (bispecific antibody)
light: DIQMTQSPSTLSASVGDRVTVTCRASQSIYIWLAWYQQKPGKAPNLLIYKASSLETGVPSRFSGSGSGTEFTLTISSLQPDDFATYYCQQYYGSSRTFGQGTKVEIKRTVAAPSVFIFPPSDEQLKSGTASVVCLLNNFYPREAKVQWKVDNALQSGNSQESVTEQDSKDSTYSLSSTLTLSKADYEKHKVYACEVTHQGLSSPVTKSFNRGEC
heavy: EVQLVESGGGLVQPGGSLRLSCAASGFTFSSYWMSWVRQAPGKGLEWVANIKQEGSEKYYVDSVKGRFTISRDNAKNSLYLQMNSLRAEDTAVYYCARDRAVAGAFDIWGQGTMVTVSSASTKGPSVFPLAPSSKSTSGGTAALGCLVKDYFPEPVTVSWNSGALTSGVHTFPAVLQSSGLYSLSSVVTVPSSSLGTQTYICNVNHKPSNTKVDKKVEPKSCDKTHTCPPCPAPEAAGGPSVFLFPPKPKDTLMISRTPEVTCVVVDVSHEDPEVKFNWYVDGVEVHNAKTKPREEQYNSTYRVVSVLTVLHQDWLNGKEYKCKVSNKALGAPIEKTISKAKGQPREPQVYTLPPSREEMTKNQVSLTCLVKGFYPSDIAVEWESNGQPENNYKTTPPVLDSDGSFFLYSKLTVDKSRWQQGNVFSCSVMHEALHNHYTQKSLSLSPGEPKSSDKTHTPPPPPRTEVQLLESGGGLVQPGGSLRLSCAASGFIFSNFAMTWVRQPPEKGLKWVSSINGSGFNTYYTDSVKGRFTISRDNSRNTLYLQMNRLTAEDTAVYFCAKEGSSETDDHYYNVDVWGQGTTVTVSS
On to B4, for which the figures for the EC50 in assay [1] and in assay [3] were 1.29 nM and 3.15 nM, respectively.

B5: PR007163 (bispecific antibody)
light: DIQMTQSPSTLSASVGDRVTVTCRASQSIYIWLAWYQQKPGKAPNLLIYKASSLETGVPSRFSGSGSGTEFTLTISSLQPDDFATYYCQQYYGSSRTFGQGTKVEIKRTVAAPSVFIFPPSDEQLKSGTASVVCLLNNFYPREAKVQWKVDNALQSGNSQESVTEQDSKDSTYSLSSTLTLSKADYEKHKVYACEVTHQGLSSPVTKSFNRGEC
heavy: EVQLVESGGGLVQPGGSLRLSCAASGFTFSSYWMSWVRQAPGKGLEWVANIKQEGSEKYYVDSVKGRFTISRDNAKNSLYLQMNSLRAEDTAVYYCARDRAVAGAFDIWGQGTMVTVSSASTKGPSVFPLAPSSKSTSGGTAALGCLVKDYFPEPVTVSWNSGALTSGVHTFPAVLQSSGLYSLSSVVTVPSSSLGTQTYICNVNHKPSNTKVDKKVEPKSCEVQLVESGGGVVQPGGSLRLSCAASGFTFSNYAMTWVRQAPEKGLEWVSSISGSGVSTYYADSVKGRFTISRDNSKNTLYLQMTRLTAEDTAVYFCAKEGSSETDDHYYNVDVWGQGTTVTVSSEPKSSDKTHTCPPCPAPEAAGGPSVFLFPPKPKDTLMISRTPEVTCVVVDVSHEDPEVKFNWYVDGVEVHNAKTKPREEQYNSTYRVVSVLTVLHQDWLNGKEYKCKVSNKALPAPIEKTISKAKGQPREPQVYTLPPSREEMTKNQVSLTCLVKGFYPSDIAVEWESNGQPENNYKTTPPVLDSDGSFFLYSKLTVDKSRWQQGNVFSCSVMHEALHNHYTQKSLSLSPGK
As for B5, in assay [1], the midpoint of the response, the EC50, lay at 2.26 nM.

B6: PR003550 (bispecific antibody)
light: DIQMTQSPSTLSASVGDRVTVTCRASQSIYIWLAWYQQKPGKAPNLLIYKASSLETGVPSRFSGSGSGTEFTLTISSLQPDDFATYYCQQYYGSSRTFGQGTKVEIKRTVAAPSVFIFPPSDEQLKSGTASVVCLLNNFYPREAKVQWKVDNALQSGNSQESVTEQDSKDSTYSLSSTLTLSKADYEKHKVYACEVTHQGLSSPVTKSFNRGEC
heavy: EVQLVESGGGLVQPGGSLRLSCAASGFTFSSYWMSWVRQAPGKGLEWVANIKQEGSEKYYVDSVKGRFTISRDNAKNSLYLQMNSLRAEDTAVYYCARDRAVAGAFDIWGQGTMVTVSSASTKGPSVFPLAPSSKSTSGGTAALGCLVKDYFPEPVTVSWNSGALTSGVHTFPAVLQSSGLYSLSSVVTVPSSSLGTQTYICNVNHKPSNTKVDKKVEPKSCDKTHTCPPCPAPEAAGGPSVFLFPPKPKDTLMISRTPEVTCVVVDVSHEDPEVKFNWYVDGVEVHNAKTKPREEQYNSTYRVVSVLTVLHQDWLNGKEYKCKVSNKALGAPIEKTISKAKGQPREPQVYTLPPSREEMTKNQVSLTCLVKGFYPSDIAVEWESNGQPENNYKTTPPVLDSDGSFFLYSKLTVDKSRWQQGNVFSCSVMHEALHNHYTQKSLSLSPGEPKSSDKTHTPPPPPRTEVQLVESGGGVVQPGGSLRLSCAASGFTFSNYAMTWVRQAPEKGLEWVSSISGSGVSTYYADSVKGRFTISRDNSKNTLYLQMTRLTAEDTAVYFCAKEGSSETDDHYYNVDVWGQGTTVTVSS
For B6, the midpoint of the response in assay [1], the EC50, lay at 1.11 nM. Against the preceding molecule, the EC50 is about 2-fold lower.

B7: PR003563 (bispecific antibody)
light: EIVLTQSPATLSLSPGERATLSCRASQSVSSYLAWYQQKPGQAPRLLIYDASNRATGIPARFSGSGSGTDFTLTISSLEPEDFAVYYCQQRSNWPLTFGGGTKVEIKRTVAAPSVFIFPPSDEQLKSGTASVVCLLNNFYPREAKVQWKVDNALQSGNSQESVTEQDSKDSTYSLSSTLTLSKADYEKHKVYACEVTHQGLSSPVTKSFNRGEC
heavy: EVQLLESGGGLVQPGGSLRLSCAASGFTFSSFVMSWVRQAPGKGLEWVSTISGSGRSTYYADSVKGRFTISRDNSKNTLHLQMNSLRAEDTAVYYCAKDAAAAGTKFDYWGQGTLVTVSSASTKGPSVFPLAPSSKSTSGGTAALGCLVKDYFPEPVTVSWNSGALTSGVHTFPAVLQSSGLYSLSSVVTVPSSSLGTQTYICNVNHKPSNTKVDKKVEPKSCDKTHTCPPCPAPEAAGGPSVFLFPPKPKDTLMISRTPEVTCVVVDVSHEDPEVKFNWYVDGVEVHNAKTKPREEQYNSTYRVVSVLTVLHQDWLNGKEYKCKVSNKALGAPIEKTISKAKGQPREPQVYTLPPSREEMTKNQVSLTCLVKGFYPSDIAVEWESNGQPENNYKTTPPVLDSDGSFFLYSKLTVDKSRWQQGNVFSCSVMHEALHNHYTQKSLSLSPGEPKSSDKTHTPPPPPRTEVQLVESGGGVVQPGGSLRLSCAASGFTFSNYAMTWVRQAPEKGLEWVSSISGSGVSTYYADSVKGRFTISRDNSKNTLYLQMTRLTAEDTAVYFCAKEGSSETDDHYYNVDVWGQGTTVTVSS
In assay [2], B7 displayed an EC50 of 1.65 nM. That is a single-digit nanomolar value.

B8: PR003564 (bispecific antibody)
light: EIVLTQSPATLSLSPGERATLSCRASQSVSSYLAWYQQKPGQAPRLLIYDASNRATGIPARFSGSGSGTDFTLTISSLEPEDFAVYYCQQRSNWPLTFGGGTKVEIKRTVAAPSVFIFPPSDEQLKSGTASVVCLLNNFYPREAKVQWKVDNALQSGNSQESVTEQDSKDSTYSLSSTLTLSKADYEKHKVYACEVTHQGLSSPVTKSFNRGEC
heavy: EVQLLESGGGLVQPGGSLRLSCAASGFTFSSFVMSWVRQAPGKGLEWVSTISGSGRSTYYADSVKGRFTISRDNSKNTLHLQMNSLRAEDTAVYYCAKDAAAAGTKFDYWGQGTLVTVSSASTKGPSVFPLAPSSKSTSGGTAALGCLVKDYFPEPVTVSWNSGALTSGVHTFPAVLQSSGLYSLSSVVTVPSSSLGTQTYICNVNHKPSNTKVDKKVEPKSCDKTHTCPPCPAPEAAGGPSVFLFPPKPKDTLMISRTPEVTCVVVDVSHEDPEVKFNWYVDGVEVHNAKTKPREEQYNSTYRVVSVLTVLHQDWLNGKEYKCKVSNKALGAPIEKTISKAKGQPREPQVYTLPPSREEMTKNQVSLTCLVKGFYPSDIAVEWESNGQPENNYKTTPPVLDSDGSFFLYSKLTVDKSRWQQGNVFSCSVMHEALHNHYTQKSLSLSPGEPKSSDKTHTPPPPPRTEVQLLESGGGLVQPGGSLRLSCAASGFIFSNFAMTWVRQPPEKGLKWVSSINGSGFNTYYTDSVKGRFTISRDNSRNTLYLQMNRLTAEDTAVYFCAKEGSSETDDHYYNVDVWGQGTTVTVSS
In assay [2], B8 had an EC50 of 2.78 nM.
